# Measurements taken from patent US6124125A, “AMP activated protein kinase” (Trustees of Dartmouth College, priority 1996, dated 2000).
# Where “and” joins values, the source holds several entries; their conditions need not be identical. Equal values may be shown once. Where no end group is shown, it is not given here.
# Key:
# AMPK α2 = assay type: biochemical, rat; settings: alpha2 immune precipitates
# AMPK α1 = assay type: biochemical, rat; settings: alpha1 immune precipitates, 200 µM
# AMPK = AMPK protein kinase assay: phosphorylation of synthetic peptide substrates by partially purified enzyme (DE-52 step); assay type: biochemical, porcine; settings: for rate of phosphorylation relative to the SAMS peptide: partially purified enzyme (purified to the DE-52 step), % of the rate of the SAMS peptide; for Km: peptide as substrate of AMPK, read-out: apparent Km as substrate for the AMPK
# Description: A series of synthetic peptides including analogues of proteins […] to be substrates for the AMPK were screened with partially purified enzyme (purified to the DE-52 step). These included the myosin light chains, ADR1, glycogen synthase and phospholemman. The phospholemman peptides tested were poor substrates and not investigated further. The glycogen synthase peptide, PLSRTLSVAAKK (SEQ ID NO: 46) was phosphorylated in an AMP-dependent manner at approximately 40% of the rate of the SAMS peptide, however, this peptide is an excellent substrate for a number of protein kinases, including protein kinase C and calmodulin dependent protein kinase II (Kemp, B. E. and Pearson, R. B. (1991) in Protein Phosphorylation, Hunter, T and Sefton, B. M. (eds) Methods in Enzymology, 200, 121-134). The myosin light chain peptides tested were phosphorylated with rates approximately 15% of the SAMS peptide.
# The AMPK was assayed in accordance with procedures described by Davies et al. (1989) Eur. J. Biochem. 186, 123-128 using the SAMS peptide substrate, HMRSAMSGLHLVKRR-amide (SEQ ID NO: 49). The enzyme was diluted in diluting buffer (20 mM HEPES pH 7.0, 0.1% (v/v) Triton X-100) prior to assay and the reactions were initiated by adding […] diluted enzyme to the reaction mixture containing peptide substrate. The reactions were stopped by withdrawing […] aliquots and applying to P81 papers in accordance with procedures described by Pearson, R. B., Mitchelhill, K. I., and Kemp, B. E. (1993) in Protein Phosphorylation: A Practical Approach, Hardie, G. D. (ed) Oxford University Press, pp 265-291.
# SAMS peptide [1] = settings: scale: % of the SAMS peptide phosphotransferase activity of rat liver
# SAMS peptide [2] = biological target: SAMS peptide
# [3] = biological target: myosin light chain peptides
# [4] = biological target: ADR1(225-234) peptide (Saccharomyces cerevisiae (strain ATCC 204508 / S288c) (Baker's yeast)) (UniProt P07248)
# SAMS peptide [5] = biological target: SAMS peptide; remark: listed apart in the source
# [6] = biological target: glycogen synthase peptide
# [7] = biological target: ADR1(222-234)P229 peptide
compound,measurement,setting,value
Nc1ncnc2c1ncn2[C@@H]1O[C@H](COP(=O)(O)O)[C@@H](O)[C@H]1O [5'-AMP],activation by 5'-AMP,AMPK α2,3-4 fold
same,activation by 5'-AMP,AMPK α1,2-3 fold
ADR1(225-234): synthetic ADR1 peptide screened as AMPK substrate (LTRRASFSAQ),rate of phosphorylation relative to the SAMS peptide,AMPK,approximately 50%
"AMPK α1 isoform holoenzyme purified from liver by peptide substrate affinity chromatography (63 kDa catalytic subunit, 40 kDa and 38 kDa subunits) (from UniProt P54645)",SAMS peptide phosphotransferase activity,SAMS peptide [1],> 94
"AMPK α2 isoenzyme of rat liver (α2 with β and γ subunits), from the unbound fraction of the peptide substrate affinity column (from UniProt Q09137)",apparent specific activity,acetyl CoA carboxylase,> 20 fold lower
same,apparent specific activity,SAMS peptide [2],> 20 fold lower
"AMPK, partially purified enzyme (purified to the DE-52 step)",rate of phosphorylation (% of the SAMS peptide),[3],15
same,rate of phosphorylation (% of the SAMS peptide),[4],50
same,apparent Km of phosphorylation,SAMS peptide [5],33 µM
same,rate of phosphorylation (% of the rate of the SAMS peptide),[6],40
same,apparent Km of phosphorylation,[7],3 µM
HMRSAMSGLHLVKRR-amide (HMRSAMSGLHLVKRR-NH2) [SAMS peptide],Km,AMPK,33 µM
LKKLTLRASFSAQ (not fully specified) [ADR1(222-234)^P229],rate of phosphorylation relative to the SAMS peptide,AMPK,approximately 50%
same,Km,AMPK,~3 µM and 3 µM
PLSRTLSVAAKK [glycogen synthase peptide],rate of phosphorylation relative to the SAMS peptide,AMPK,approximately 40%
